Measurements taken from patent US9284543B2, “Neutral active soluble truncated PH20 polypeptides and uses thereof” (Halozyme, Inc., priority 2008, dated 2016).

Assays:
CHO-S cells = assay: Western blot analysis of PH20 expression in media and cells after transient expression; assay type: cell-based, Chinese Hamster; settings: media versus cells
How it was run: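 CHO-S cells were transiently transfected with mutant PH20-HZ24 plasmids using GeneJuice and expressed for 48-72 h at 37 °C, 5% CO2. Media and cells were harvested separately, with PI-PLC treatment used to release GPI-anchored protein. Non-reduced samples were blotted with rabbit anti-PH20 (0.5 μg/mL), and a band near 66 kDa was scored as PH20.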

[1] = Microtiter hyaluronidase activity assay with biotinylated-hyaluronic acid; assay type: biochemical; settings: Table 6, 72 hour post transfection supernatant

B1: SPAM1-VDVC: C-terminally truncated human PH20, precursor 458 aa (SEQ ID NO:39), mature 423 aa (SEQ ID NO:91) (protein, listed as Homo sapiens)
chain 1: MGVLKFKHIFFRSFVKSSGVSQIVFTFLLIPCCLTLNFRAPPVIPNVPFLWAWNAPSEFCLGKFDEPLDMSLFSFIGSPRINATGQGVTIFYVDRLGYYPYIDSITGVTVNGGIPQKISLQDHLDKAKKDITFYMPVDNLGMAVIDWEEWRPTWARNWKPKDVYKNRSIELVQQQNVQLSLTEATEKAKQEFEKAGKDFLVETIKLGKLLRPNHLWGYYLFPDCYNHHYKKPGYNGSCFNVEIKRNDDLSWLWNESTALYPSIYLNTQQSPVAATLYVRNRVREAIRVSKIPDAKSPLPVFAYTRIVFTDQVLKFLSQDELVYTFGETVALGASGIVIWGTLSIMRSMKSCLLLDNYMETILNPYIINVTLAAKMCSQVLCQEQGVCIRKNWNSSDYLHLNPDNFAIQLEKGGKFTVRGKPTLEDLEQFSEKFYCSCYSTLSCKEKADVKDTDAVDVC
chain 2: LNFRAPPVIPNVPFLWAWNAPSEFCLGKFDEPLDMSLFSFIGSPRINATGQGVTIFYVDRLGYYPYIDSITGVTVNGGIPQKISLQDHLDKAKKDITFYMPVDNLGMAVIDWEEWRPTWARNWKPKDVYKNRSIELVQQQNVQLSLTEATEKAKQEFEKAGKDFLVETIKLGKLLRPNHLWGYYLFPDCYNHHYKKPGYNGSCFNVEIKRNDDLSWLWNESTALYPSIYLNTQQSPVAATLYVRNRVREAIRVSKIPDAKSPLPVFAYTRIVFTDQVLKFLSQDELVYTFGETVALGASGIVIWGTLSIMRSMKSCLLLDNYMETILNPYIINVTLAAKMCSQVLCQEQGVCIRKNWNSSDYLHLNPDNFAIQLEKGGKFTVRGKPTLEDLEQFSEKFYCSCYSTLSCKEKADVKDTDAVDVC
modifications: HuPH20 precursor 1-458; Mature HuPH20 36-458
- Expressed in Media (CHO-S cells): YES
- pH 5.5 Activity [1]: 0.0585 Units/ml
- pH 7.4 Activity [1]: 0.0495 Units/ml

B2: SPAM1-DAVD: C-terminally truncated human PH20, precursor 456 aa (SEQ ID NO:40), mature 421 aa (SEQ ID NO:92) (protein, listed as Homo sapiens)
chain 1: MGVLKFKHIFFRSFVKSSGVSQIVFTFLLIPCCLTLNFRAPPVIPNVPFLWAWNAPSEFCLGKFDEPLDMSLFSFIGSPRINATGQGVTIFYVDRLGYYPYIDSITGVTVNGGIPQKISLQDHLDKAKKDITFYMPVDNLGMAVIDWEEWRPTWARNWKPKDVYKNRSIELVQQQNVQLSLTEATEKAKQEFEKAGKDFLVETIKLGKLLRPNHLWGYYLFPDCYNHHYKKPGYNGSCFNVEIKRNDDLSWLWNESTALYPSIYLNTQQSPVAATLYVRNRVREAIRVSKIPDAKSPLPVFAYTRIVFTDQVLKFLSQDELVYTFGETVALGASGIVIWGTLSIMRSMKSCLLLDNYMETILNPYIINVTLAAKMCSQVLCQEQGVCIRKNWNSSDYLHLNPDNFAIQLEKGGKFTVRGKPTLEDLEQFSEKFYCSCYSTLSCKEKADVKDTDAVD
chain 2: LNFRAPPVIPNVPFLWAWNAPSEFCLGKFDEPLDMSLFSFIGSPRINATGQGVTIFYVDRLGYYPYIDSITGVTVNGGIPQKISLQDHLDKAKKDITFYMPVDNLGMAVIDWEEWRPTWARNWKPKDVYKNRSIELVQQQNVQLSLTEATEKAKQEFEKAGKDFLVETIKLGKLLRPNHLWGYYLFPDCYNHHYKKPGYNGSCFNVEIKRNDDLSWLWNESTALYPSIYLNTQQSPVAATLYVRNRVREAIRVSKIPDAKSPLPVFAYTRIVFTDQVLKFLSQDELVYTFGETVALGASGIVIWGTLSIMRSMKSCLLLDNYMETILNPYIINVTLAAKMCSQVLCQEQGVCIRKNWNSSDYLHLNPDNFAIQLEKGGKFTVRGKPTLEDLEQFSEKFYCSCYSTLSCKEKADVKDTDAVD
modifications: HuPH20 precursor 1-456; Mature HuPH20 36-456
- Expressed in Media (CHO-S cells): YES
- pH 5.5 Activity [1]: 0.0675 Units/ml
- pH 7.4 Activity [1]: 0 Units/ml
